Consider four sequences from the supplement of paper PMC5998384.

Data set [1] concerns HeLa Kyoto. The data set is described as follows: thermal stability score vs G1/S (z-score of summed log2 fold changes over temperatures); higher = more thermally stable than in G1/S.
The subject of data set [2] is HeLa Kyoto. Description: melting temperature (median over replicates), in situ; higher = more thermally stable.
Data set [3] has as its system HeLa Kyoto. Description: solubility in G1/S (NP-40 vs SDS abundance) (log2 ratio); higher = more soluble. The settings on record: cell cycle stage: G1/S.
Data set [4] relates to HeLa Kyoto. The data set is described as follows: solubility change mitosis vs G1/S (difference of NP-40 vs SDS log2 ratios) (log2 ratio difference); higher = more soluble in mitosis.
The mark [5] stands for this setting: cell cycle stage: early G1 (4.5 h after nocodazole release).
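For melting temperature (median over replicates), in situ in this document: HeLa Kyoto cells synchronized by double thymidine or nocodazole block, proteins quantified by TMT10plex mass spectrometry, three independent biological replicates.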
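For solubility change mitosis vs G1/S (difference of NP-40 vs SDS log2 ratios) in this document: synchronized HeLa Kyoto cells (double thymidine block for G1/S, nocodazole release for mitosis), protein amounts in NP-40 versus SDS lysates quantified by mass spectrometry, three biological replicates.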
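For solubility in G1/S (NP-40 vs SDS abundance) in this document: HeLa Kyoto cells arrested at G1/S by double thymidine block, proteins quantified by TMT10plex mass spectrometry in mild NP-40 versus SDS extracts, three biological replicates.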
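For thermal stability score vs G1/S (z-score of summed log2 fold changes over temperatures) in this document: synchronized HeLa Kyoto cells, proteins quantified by TMT10plex mass spectrometry, three biological replicates, mitosis taken 0.5 h after nocodazole release, G1/S directly after double thymidine block.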

Consider “MDSAGQDINLNSPNKGLLSDSMTDVPVDTGVAARTPAVEGLTEAEEEELRAELTKVEEEIVTLRQVLAAKERHCGELKRRLGLSTLGELKQNLSRSWHDVQVSSAYVKTSEKLGEWNEKVTQSDLYKKTQETLSQAGQKTSAALSTVGSAISRKLGDMRNSATFKSFEDRVGTIKSKVVGDRENGSDNLPSSAGSGDKPLSDPAPF [TPD52L2]”, for which the results for the thermal stability score in data set [1] (setting [5]) and in data set [1] (cell cycle stage: mitosis) were -4.67 and -5.07, respectively. Also, the melting temperature in data set [2] (cell cycle stage: G1/S) was 53 °C; in data set [2] (cell cycle stage: mitosis), 52.7 °C. Moreover, the “solubility in G1/S (log2)” value in data set [3] turned out to be 0.127. Further, in data set [4], the “solubility change mitosis (log2)” value came to 0.6.

In the case of “MDSEAFQSARDFLDMNFQSLAMKHMDLKQMELDTAAAKVDELTKQLESLWSDSPAPPGPQAGPPSRPPRYSSSSIPEPFGSRGSPRKAATDGADTPFGRSESAPTLHPYSPLSPKGRPSSPRTPLYLQPDAYGSLDRATSPRPRAFDGAGSSLGRAPSPRPGPGPLRQQGPPTPFDFLGRAGSPRGSPLAEGPQAFFPERGPSPRPPATAYDAPASAFGSSLLGSGGSAFAPPLRAQDDLTLRRRPPKAWNESDLDVAYEKKPSQTASYERLDVFARPASPSLQLLPWRESSLDGLGGTGKDNLTSATLPRNYKVSPLASDRRSDAGSYRRSLGSAGPSGTLPRSWQPVSRIPMPPSSPQPRGAPRQRPIPLSMIFKLQNAFWEHGASRAMLPGSPLFTRAPPPKLQPQPQPQPQPQSQPQPQLPPQPQTQPQTPTPAPQHPQQTWPPVNEGPPKPPTELEPEPEIEGLLTPVLEAGDVDEGPVARPLSPTRLQPALPPEAQSVPELEEVARVLAEIPRPLKRRGSMEQAPAVALPPTHKKQYQQIISRLFHRHGGPGPGGPEPELSPITEGSEARAGPPAPAPPAPIPPPAPSQSSPPEQPQSMEMRSVLRKAGSPRKARRARLNPLVLLLDAALTGELEVVQQAVKEMNDPSQPNEEGITALHNAICGANYSIVDFLITAGANVNSPDSHGWTPLHCAASCNDTVICMALVQHGAAIFATTLSDGATAFEKCDPYREGYADCATYLADVEQSMGLMNSGAVYALWDYSAEFGDELSFREGESVTVLRRDGPEETDWWWAALHGQEGYVPRNYFGLFPRVKPQRSKV [PPP1R13L]”, the thermal stability score in data set [1] (setting [5]) is -0.761; in data set [1] (cell cycle stage: mitosis) it was 0.0817. Also, the melting temperature in data set [2] (cell cycle stage: G1/S) is 51.2 °C; in data set [2] (cell cycle stage: mitosis), 51.5 °C. Besides, in data set [3], the “solubility in G1/S (log2)” value stood at 0.09. Also, the “solubility change mitosis (log2)” value in data set [4] turned out to be 0.0483.

On to “MDSRVSELFGGCCRPGGGPAVGGTLKARGAGSSSGCGGPKGKKKNGRNRGGKANNPPYLPPEAEDGNIEYKLKLVNPSQYRFEHLVTQMKWRLQEGRGEAVYQIGVEDNGLLVGLAEEEMRASLKTLHRMAEKVGADITVLREREVDYDSDMPRKITEVLVRKVPDNQQFLDLRVAVLGNVDSGKSTLLGVLTQGELDNGRGRARLNLFRHLHEIQSGRTSSISFEILGFNSKGEVVNYSDSRTAEEICESSSKMITFIDLAGHHKYLHTTIFGLTSYCPDCALLLVSANTGIAGTTREHLGLALALKVPFFIVVSKIDLCAKTTVERTVRQLERVLKQPGCHKVPMLVTSEDDAVTAAQQFAQSPNVTPIFTLSSVSGESLDLLKVFLNILPPLTNSKEQEELMQQLTEFQVDEIYTVPEVGTVVGGTLSSGICREGDQLVVGPTDDGCFLELRVCSIQRNRSACRVLRAGQAATLALGDFDRALLRKGMVMVSPEMNPTICSVFEAEIVLLFHATTFRRGFQVTVHVGNVRQTAVVEKIHAKDKLRTGEKAVVRFRFLKHPEYLKVGAKLLFREGVTKGIGHVTDVQAITAGEAQANMGF [GTPBP2]”, for which the thermal stability score in data set [1] (setting [5]) stood at 0.507; in data set [1] (cell cycle stage: mitosis) it was 0.439. In addition, the melting temperature in data set [2] (cell cycle stage: G1/S) is 49.9 °C; in data set [2] (cell cycle stage: mitosis), 50.1 °C. In addition, the “solubility in G1/S (log2)” value in data set [3] was -0.711. Moreover, the “solubility change mitosis (log2)” value in data set [4] is 0.127.

For the sequence “MDSTLTASEIRQRFIDFFKRNEHTYVHSSATIPLDDPTLLFANAGMNQFKPIFLNTIDPSHPMAKLSRAANTQKCIRAGGKHNDLDDVGKDVYHHTFFEMLGSWSFGDYFKELACKMALELLTQEFGIPIERLYVTYFGGDEAAGLEADLECKQIWQNLGLDDTKILPGNMKDNFWEMGDTGPCGPCSEIHYDRIGGRDAAHLVNQDDPNVLEIWNLVFIQYNREADGILKPLPKKSIDTGMGLERLVSVLQNKMSNYDTDLFVPYFEAIQKGTGARPYTGKVGAEDADGIDMAYRVLADHARTITVALADGGRPDNTGRGYVLRRILRRAVRYAHEKLNASRGFFATLVDVVVQSLGDAFPELKKDPDMVKDIINEEEVQFLKTLSRGRRILDRKIQSLGDSKTIPGDTAWLLYDTYGFPVDLTGLIAEEKGLVVDMDGFEEERKLAQLKSQGKGAGGEDLIMLDIYAIEELRARGLEVTDDSPKYNYHLDSSGSYVFENTVATVMALRREKMFVEEVSTGQECGVVLDKTCFYAEQGGQIYDEGYLVKVDDSSEDKTEFTVKNAQVRGGYVLHIGTIYGDLKVGDQVWLFIDEPRRRPIMSNHTATHILNFALRSVLGEADQKGSLVAPDRLRFDFTAKGAMSTQQIKKAEEIANEMIEAAKAVYTQDCPLAAAKAIQGLRAVFDETYPDPVRVVSIGVPVSELLDDPSGPAGSLTSVEFCGGTHLRNSSHAGAFVIVTEEAIAKGIRRIVAVTGAEAQKALRKAESLKKCLSVMEAKVKAQTAPNKDVQREIADLGEALATAVIPQWQKDELRETLKSLKKVMDDLDRASKADVQKRVLEKTKQFIDSNPNQPLVILEMESGASAKALNEALKLFKMHSPQTSAMLFTVDNEAGKITCLCQVPQNAANRGLKASEWVQQVSGLMDGKGGGKDVSAQATGKNVGCLQEALQLATSFAQLRLGDVKN [AARS]”, the thermal stability score was 2.25 in data set [1] (setting [5]) and 2.81 in data set [1] (cell cycle stage: mitosis). In addition, the melting temperature in data set [2] (cell cycle stage: G1/S) was 51.6 °C; in data set [2] (cell cycle stage: mitosis), 52.1 °C. The “solubility in G1/S (log2)” value in data set [3] came out at 0.201. Besides, in data set [4], the “solubility change mitosis (log2)” value was -0.1.
